In paper PMC8631942:
Several values for one entry are separate records, joined by “and”; a condition that tells them apart may be missing. Equal entries are not always repeated.

Assays:
[1] = target: His10-PD-1^ICD PD-1^FY, pre-phosphorylated (human) (UniProt Q15116); assay: SPR; OpenSPR (Nicoya); pre-phosphorylated His10-tagged PD-1 or BTLA ICD immobilised on a Ni sensor chip (about 1500 RU); SH2 injected at 20-1000 nM, 20 μl/min; 20 mM HEPES, 150 mM NaCl, 5 mM imidazole, 0.05% Tween-20, 10% glycerol, pH 7.5; equilibrium analysis (Evaluate EC50, TraceDrawer)
[2] = target: His10-PD-1^ICD PD-1^YF, pre-phosphorylated (human) (UniProt Q15116); assay: as above
[3] = target: His10-BTLA^ICD BTLA^FFYF, pre-phosphorylated (human) (UniProt Q7Z6A9); assay: as above
[4] = target: pre-phosphorylated His10-BTLA ICD (aa 190-289) triple-tyrosine-mutant FFYF (human) (UniProt Q7Z6A9); assay: SPR; OpenSPR (Nicoya); pre-phosphorylated His10-tagged PD-1 ICD or BTLA ICD tyrosine mutant immobilised on a Ni sensor chip (about 1500 RU); SH2 injected at 20-1000 nM, 20 ul/min; 20 mM HEPES, 150 mM NaCl, 5 mM imidazole, 0.05% Tween-20, 10% glycerol, pH 7.5; equilibrium fit ('Evaluate EC50', TraceDrawer); three independent repeats on different chips
[5] = target: pre-phosphorylated His10-PD-1 ICD (aa 194-288) PD-1^FY (human) (UniProt Q15116); assay: as above
[6] = target: pre-phosphorylated His10-PD-1 ICD (aa 194-288) PD-1^YF (human) (UniProt Q15116); assay: as above
[7] = target: pre-phosphorylated His10-BTLA ICD (aa 190-289) triple-tyrosine-mutant FFFY (human) (UniProt Q7Z6A9); assay: as above

Row | Kd [4] | Kd [5] | Kd [6] | Substance | further results
1 | – | – | – | SNAP-SHP2-cSH2 (domain or fragment) | Kd [1]: 100 nM; Kd [2]: 1400 nM
2 | – | – | – | SNAP-SHP1-nSH2 (domain or fragment) | Kd [3]: 64 nM
3 | – | – | – | SNAP-SHP2-nSH2 (domain or fragment) | Kd [1]: 140 nM; Kd [2]: 380 nM
4 | 50 nM and 73 nM and 68 nM | 72 nM and 110 nM and 88.3 nM | 200 nM and 210 nM and 400 nM | SNAP-SHP1-nSH2 (from UniProt P29350 1-595) (domain or fragment) | –
5 | 2000 nM and 1600 nM | 1100 nM and 660 nM and 3200 nM | – | SNAP-SHP1-cSH2 (from UniProt P29350 1-595) (domain or fragment) | Kd [7]: 760 nM and 1200 nM and 610 nM
6 | – | 83 nM and 77 nM and 130 nM | 1900 nM and 770 nM and 1400 nM | SNAP-SHP2-cSH2 (from UniProt Q06124 1-593) (domain or fragment) | –
7 | 430 nM and 270 nM | 120 nM and 110 nM and 200 nM | 270 nM and 420 nM and 460 nM | SNAP-SHP2-nSH2 (from UniProt Q06124 1-593) (domain or fragment) | –
